From article PMC6226536

Biological target: SlOFP20 (full length, expressed in N. benthamiana leaf cells) (tomato)

cells in which SlTRM5 stayed on the microtubules on co-expression with SlOFP20 in N. benthamiana leaf epidermal cells (% of the cells): 71
Substance: SlTRM5 (full length, expressed in N. benthamiana leaf cells) (natural protein)
